Results: patent US20200030416A1 (CASE WESTERN RESERVE UNIVERSITY, published 2020)

Molecular target: T1, integrin GPIIb-IIIa on ADP-activated human platelets (human, UniProt P08514 32-1039; P05106 27-788)
T1 construct: whole, on cells; no isolated integrin was tested; also called active platelet GPIIb-IIIa
Assay: human platelets (low platelet concentration, ADP) incubated on coverslips coated with cRGD-modified biotinylated liposomes; anti-CD62P fluorescence microscopy

- binding result: binds
B1: cyclic RGD peptide cyclo-CNPRGDY(OEt)RC (cRGD), conjugated to DSPE-PEG and displayed on liposomes (peptide)
peptide: CNPRGDYRC
modifications: not fully specified; cyclised by a disulphide between the terminal cysteines; Y(OEt) = O-ethyl tyrosine; N-terminus conjugated to DSPE-PEG2000-COOH; many copies on a ~150 nm liposome
notes: Tested only as a multivalent decoration on liposomes (2.5 mol %); also called GBP
